In the supplement of paper PMC9112550, “Optimization of the antimicrobial peptide Bac7 by deep mutational scanning” (BMC Biology, 2022):

Tested on: Escherichia coli TOP10
Experiment: shrunken log2 fold change of peptide-encoding DNA abundance (4.5 h post-induction vs induction); higher = less antimicrobial activity (less host growth inhibition)
Conditions: time post-induction: 4.5 h; library: site-saturation at positions 5, 18, 19, 20
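Note: peptides expressed intracellularly from a pBAD plasmid library in pooled LB shake-flask culture, induced with 0.3% L-arabinose, DNA abundance read by NGS, three biological replicates, DESeq2 with apeglm shrinkage.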

In order of rising “shrunken log2 fold change” value:
1. RRIRSRPPRLPRPRPRPSYIPRP  -1.48
2. RRIRTRPPRLPRPRPRPSNKPRP  -0.916
3. RRIRIRPPRLPRPRPRPYKNPRP  -0.814
4. RRIRNRPPRLPRPRPRPNIIPRP  -0.784
5. RRIRWRPPRLPRPRPRPYTRPRP  -0.774
6. RRIRQRPPRLPRPRPRPYFYPRP  -0.652
7. RRIRSRPPRLPRPRPRPKWIPRP  -0.553
8. RRIRCRPPRLPRPRPRPSQRPRP  -0.54
9. RRIRERPPRLPRPRPRPTNKPRP  -0.533
10. RRIRMRPPRLPRPRPRPIIMPRP  -0.46
11. RRIRQRPPRLPRPRPRPHWIPRP  -0.452
12. RRIRPRPPRLPRPRPRPQCYPRP  -0.44
13. RRIRIRPPRLPRPRPRPLNFPRP  -0.434
14. RRIRHRPPRLPRPRPRPYIWPRP  -0.431
15. RRIRYRPPRLPRPRPRPPSHPRP  -0.383
16. RRIRERPPRLPRPRPRPLKYPRP  -0.38
17. RRIRIRPPRLPRPRPRPLKFPRP  -0.373
18. RRIRMRPPRLPRPRPRPCWIPRP  -0.351
19. RRIRSRPPRLPRPRPRPNDSPRP  -0.342
20. RRIRWRPPRLPRPRPRPMNQPRP  -0.33
21. RRIRTRPPRLPRPRPRPTIDPRP  -0.319
22. RRIRHRPPRLPRPRPRPYCDPRP  -0.313
23. RRIRIRPPRLPRPRPRPWWDPRP  -0.309
24. RRIRERPPRLPRPRPRPQVMPRP  -0.303
25. RRIRWRPPRLPRPRPRPNHLPRP  -0.281
26. RRIRTRPPRLPRPRPRPDQVPRP  -0.272
27. RRIRPRPPRLPRPRPRPRMVPRP  -0.263
28. RRIRFRPPRLPRPRPRPQSHPRP  -0.243
29. RRIRIRPPRLPRPRPRPYLNPRP  -0.239
30. RRIRNRPPRLPRPRPRPGMSPRP  -0.238
31. RRIRIRPPRLPRPRPRPFCEPRP  -0.23
32. RRIRHRPPRLPRPRPRPLAFPRP  -0.2
33. RRIRNRPPRLPRPRPRPWGIPRP  -0.199
34. RRIRVRPPRLPRPRPRPDDWPRP  -0.198
35. RRIRTRPPRLPRPRPRPFACPRP  -0.198
36. RRIRLRPPRLPRPRPRPNVYPRP  -0.186
37. RRIRFRPPRLPRPRPRPRKYPRP  -0.177
38. RRIRIRPPRLPRPRPRPSRCPRP  -0.174
39. RRIRIRPPRLPRPRPRPFHRPRP  -0.152
40. RRIRCRPPRLPRPRPRPIVEPRP  -0.151
41. RRIRHRPPRLPRPRPRPRWYPRP  -0.137
42. RRIRKRPPRLPRPRPRPWDLPRP  -0.136
43. RRIRHRPPRLPRPRPRPQIFPRP  -0.135
44. RRIRERPPRLPRPRPRPNQTPRP  -0.13
45. RRIRVRPPRLPRPRPRPIGKPRP  -0.129
46. RRIRFRPPRLPRPRPRPFTNPRP  -0.125
47. RRIRSRPPRLPRPRPRPYLVPRP  -0.123
48. RRIRPRPPRLPRPRPRPQQYPRP  -0.108
49. RRIRERPPRLPRPRPRPFDIPRP  -0.103
50. RRIRARPPRLPRPRPRPSNHPRP  -0.089
51. RRIRHRPPRLPRPRPRPNSLPRP  -0.0817
52. RRIRYRPPRLPRPRPRPVRFPRP  -0.0685
53. RRIRDRPPRLPRPRPRPSTWPRP  -0.0672
54. RRIRYRPPRLPRPRPRPSGNPRP  -0.067
55. RRIRNRPPRLPRPRPRPCPTPRP  -0.0624
56. RRIRTRPPRLPRPRPRPIAQPRP  -0.0464
57. RRIRFRPPRLPRPRPRPFWSPRP  -0.0458
58. RRIRVRPPRLPRPRPRPNWAPRP  -0.0443
59. RRIRYRPPRLPRPRPRPRVPPRP  -0.0432
60. RRIRYRPPRLPRPRPRPHEWPRP  -0.0416
61. RRIRNRPPRLPRPRPRPGMCPRP  -0.0316
62. RRIRNRPPRLPRPRPRPRRDPRP  -0.0239
63. RRIRDRPPRLPRPRPRPDRNPRP  -0.0216
64. RRIRIRPPRLPRPRPRPWAIPRP  -0.0196
65. RRIRDRPPRLPRPRPRPFTYPRP  -0.0134
66. RRIRQRPPRLPRPRPRPVHFPRP  -0.00916
67. RRIRGRPPRLPRPRPRPYGAPRP  -0.00762
68. RRIRGRPPRLPRPRPRPFYSPRP  -0.00304
69. RRIRCRPPRLPRPRPRPEDSPRP  0.00322
70. RRIRVRPPRLPRPRPRPWSTPRP  0.00921
71. RRIRARPPRLPRPRPRPVAYPRP  0.0127
72. RRIRDRPPRLPRPRPRPKPCPRP  0.0155
73. RRIRDRPPRLPRPRPRPVHVPRP  0.0158
74. RRIRDRPPRLPRPRPRPEGCPRP  0.0171
75. RRIRYRPPRLPRPRPRPDHPPRP  0.0184
76. RRIRYRPPRLPRPRPRPDTVPRP  0.019
77. RRIRCRPPRLPRPRPRPKGTPRP  0.0259
78. RRIRLRPPRLPRPRPRPNCQPRP  0.0269
79. RRIRHRPPRLPRPRPRPVKPPRP  0.0296
80. RRIRYRPPRLPRPRPRPIWNPRP  0.0337
81. RRIRHRPPRLPRPRPRPMLTPRP  0.0372
82. RRIRSRPPRLPRPRPRPLKWPRP  0.0381
83. RRIRVRPPRLPRPRPRPACHPRP  0.0396
84. RRIRERPPRLPRPRPRPKLVPRP  0.0398
85. RRIRFRPPRLPRPRPRPMVRPRP  0.0406
86. RRIRGRPPRLPRPRPRPYPTPRP  0.0422
87. RRIRKRPPRLPRPRPRPVTTPRP  0.0429
88. RRIRDRPPRLPRPRPRPDVQPRP  0.0508
89. RRIRRRPPRLPRPRPRPGQMPRP  0.0545
90. RRIRERPPRLPRPRPRPKWAPRP  0.0574
91. RRIRGRPPRLPRPRPRPLFLPRP  0.0673
92. RRIRPRPPRLPRPRPRPMLDPRP  0.071
93. RRIRDRPPRLPRPRPRPKKIPRP  0.0726
94. RRIRPRPPRLPRPRPRPGYGPRP  0.0799
95. RRIRHRPPRLPRPRPRPVPWPRP  0.0803
96. RRIRKRPPRLPRPRPRPLGMPRP  0.11
97. RRIRSRPPRLPRPRPRPRWHPRP  0.111
98. RRIRQRPPRLPRPRPRPRPSPRP  0.112
99. RRIRYRPPRLPRPRPRPRQKPRP  0.114
100. RRIRHRPPRLPRPRPRPNTGPRP  0.121
101. RRIRLRPPRLPRPRPRPCGEPRP  0.122
102. RRIRDRPPRLPRPRPRPWGFPRP  0.13
103. RRIRNRPPRLPRPRPRPVNMPRP  0.131
104. RRIRPRPPRLPRPRPRPRSLPRP  0.14
105. RRIRIRPPRLPRPRPRPAWNPRP  0.146
106. RRIRARPPRLPRPRPRPCEFPRP  0.168
107. RRIRRRPPRLPRPRPRPEARPRP  0.172
108. RRIRHRPPRLPRPRPRPPTVPRP  0.184
109. RRIRDRPPRLPRPRPRPRRTPRP  0.186
110. RRIRGRPPRLPRPRPRPKYCPRP  0.203
111. RRIRRRPPRLPRPRPRPRIPPRP  0.209
112. RRIRPRPPRLPRPRPRPMPWPRP  0.215
113. RRIRKRPPRLPRPRPRPTMSPRP  0.22
114. RRIRRRPPRLPRPRPRPFGCPRP  0.222
115. RRIRPRPPRLPRPRPRPGHDPRP  0.235
116. RRIRFRPPRLPRPRPRPTDRPRP  0.243
117. RRIRKRPPRLPRPRPRPCGCPRP  0.249
118. RRIRQRPPRLPRPRPRPMWRPRP  0.279
119. RRIRMRPPRLPRPRPRPGMKPRP  0.282
120. RRIRVRPPRLPRPRPRPVGSPRP  0.289
121. RRIRGRPPRLPRPRPRPTDVPRP  0.307
122. RRIRVRPPRLPRPRPRPRRFPRP  0.309
123. RRIRHRPPRLPRPRPRPIPAPRP  0.32
124. RRIRGRPPRLPRPRPRPGITPRP  0.356
125. RRIRMRPPRLPRPRPRPQLRPRP  0.357
126. RRIRKRPPRLPRPRPRPWCWPRP  0.357
127. RRIRWRPPRLPRPRPRPQQPPRP  0.383
128. RRIRDRPPRLPRPRPRPCWDPRP  0.392
129. RRIRPRPPRLPRPRPRPPIRPRP  0.41
130. RRIRPRPPRLPRPRPRPTPWPRP  0.427
131. RRIRFRPPRLPRPRPRPRPSPRP  0.433
132. RRIRSRPPRLPRPRPRPRPMPRP  0.498
133. RRIRPRPPRLPRPRPRPRTKPRP  0.518
134. RRIRWRPPRLPRPRPRPACSPRP  0.528
135. RRIRARPPRLPRPRPRPGRYPRP  0.54
136. RRIRGRPPRLPRPRPRPTVLPRP  0.564
137. RRIRWRPPRLPRPRPRPWPAPRP  0.62
138. RRIRSRPPRLPRPRPRPKQQPRP  0.741
139. RRIRGRPPRLPRPRPRPLLVPRP  0.781
140. RRIRGRPPRLPRPRPRPLANPRP  0.835
141. RRIRNRPPRLPRPRPRPRMRPRP  0.867
142. RRIRGRPPRLPRPRPRPGDGPRP  0.895
143. RRIRMRPPRLPRPRPRPPAQPRP  1.08
144. RRIRGRPPRLPRPRPRPTRKPRP  1.12
145. RRIRDRPPRLPRPRPRPAAMPRP  1.32
146. RRIRGRPPRLPRPRPRPSAVPRP  1.39
147. RRIRGRPPRLPRPRPRPPEEPRP  1.5
148. RRIRDRPPRLPRPRPRPEAEPRP  1.67
149. RRIRKRPPRLPRPRPRPPGRPRP  2.07
150. RRIRMRPPRLPRPRPRPEVAPRP  3.75
